The source of these data is article PMC3080406, “Efficient Conversion of Phenylpyruvic Acid to Phenyllactic Acid by Using Whole Cells of Bacillus coagulans SDM” (PLoS ONE, 2011).

What all share (assay): NADH oxidation assay
Assay type in all cases: biochemical, Heyndrickxia coagulans

Substrate in data set [1]: CC(=O)C(=O)O
Conditions: 0.2 mM NADH, 5 mM FDP (fructose 1,6-bisphosphate), 50 mM Tris-HCl pH 7.0, 50°C. An excerpt:
(§1) NADH oxidation assay on L-nLDH

Substrate in data set [2]: O=C(O)C(=O)Cc1ccccc1
As to conditions: 0.2 mM NADH, 5 mM FDP (fructose 1,6-bisphosphate), 50 mM Tris-HCl pH 7.0, 50°C.
Description: as §1

Substrate in data set [3]: CC(=O)C(=O)O
Conditions: 0.2 mM NADH, 50 mM Tris-HCl pH 7.0, 50°C, no FDP. From the text: (§2) NADH oxidation assay on D-nLDH

Substrate in data set [4]: O=C(O)C(=O)Cc1ccccc1
As to conditions: 0.2 mM NADH, 50 mM Tris-HCl pH 7.0, 50°C, no FDP.
Description: as §2

B1: L-nLDH (Heyndrickxia coagulans) (protein)
chain: MKKVNRIAVVGTGAVGTSYCYAMINQGVAEELVLIDINEAKAEGEAMDLNHGLPFAPTPTRVWKGDYSDCGTADLVVITAGSPQKPGETRLDLVSKNAKIFKGMIKSIMDSGFNGIFLVASNPVDILTYVTWKESGLPKEHVIGSGTVLDSARLRNSLSAQFGIDPRNVHAAIIGEHGDTELPVWSHTNIGYDTIESYLQKGIIDEKTLDDIFVNTRDAAYHIIERKGATFYGIGMSLTRITRAILNNENSVLTVSAFLEGQYGNSDVYVGVPAIINRQGIREVVEIKLNEKEQEQFNHSVKVLKETMAPVL
notes: full-length ldhL in pET-28a, N- and C-terminal His tags kept, expressed in E. coli BL21(DE3), HisTrap purified
Usually Km stands for the substrate concentration at which the rate is half of its maximum. Usually Vmax stands for the rate approached at saturating substrate. One may read the kcat as the number of substrate molecules converted per active site and unit of time at saturation. One may read the kcat/Km as the turnover number divided by the Michaelis constant. As for B1, in “NADH oxidation assay [1]”, the Km was 2.6 mM, the Vmax was found to be 1800 µmol/min/mg, the kcat came out at 1170 s⁻¹ and the kcat/Km was 450000 M⁻¹ s⁻¹. Moreover, in the data set “NADH oxidation assay [2]”, the Km stood at 4.3 mM, the Vmax stood at 72.6 µmol/min/mg, the kcat was found to be 47.2 s⁻¹ and the catalytic efficiency (kcat/Km) is 11000 M⁻¹ s⁻¹.

B2: D-nLDH (Heyndrickxia coagulans) (protein)
chain: MRKVVAYETRADEFPLFQKFARKFDLDIKYIDDVLTPETAMEAKGAEAVTILGNYPVGSGTFKALRDVGVKYIGLRTAGNNHIDQEAAKAYGIRFSNVAYSPYCVADFATMLILMCVRKAKQILSRVEAQDFSVEGIQGREMRNLTIGIIGAGRIGSIVAKNLSGFGCNLIAHDTVERDELRGILKYVSLDELLEESDVITIHTPLFESTYHMINQERIAKIKDGVCIINCSRGAEVDTYALIAGIEAGKAGAAGIDVLEDEEGIFHYDRRTDILDHRQLAILRSFPNVIVTPHTAFYPNQAVSDMAEMALTSLVSFVETGKSRWEIKS
notes: full-length ldhD in pET-28a, N- and C-terminal His tags kept, expressed in E. coli BL21(DE3), HisTrap purified
In the case of B2, in “NADH oxidation assay [3]”, the Km was 2.2 mM, the Vmax stood at 33.7 µmol/min/mg, the kcat worked out at 23.6 s⁻¹ and the kcat/Km was determined as 11000 M⁻¹ s⁻¹. In addition, in the data set “NADH oxidation assay [4]”, the Km came to 4.4 mM, the Vmax stood at 23.5 µmol/min/mg, the kcat was found to be 16.5 s⁻¹ and the kcat/Km was found to be 3900 M⁻¹ s⁻¹.
